From paper PMC8639466

Key:
[1] = target: hSSRP1-PH2 (Leu101-Thr195) (human); assay: SEC; molecular weight calibration of the single protein in solution
[2] = target: hSSRP1-HMG520-616 (Homo sapiens, UniProt Q08945 520-616); assay: EMSA; EMSA: 5 uM DNA, 137 mM NaCl, 2.7 mM KCl, 10 mM Na2HPO4, 2 mM KH2PO4 pH 7.4, 30 min on ice, 12% native PAGE; single-molecule: 10 mM Tris, 20 mM EDTA, 25 mM KCl; settings: protein: recombinant; tags: GST or His-SUMO fusion vector; GST cleaved; label: 5'-FAM on strand 1; blunt
[3] = target: hSSRP1-HMG546-616 (Homo sapiens, UniProt Q08945 546-616); assay: as above; settings: protein: recombinant; tags: GST or His-SUMO fusion vector; GST cleaved; label: 5'-FAM on strand 1; blunt
hSSRP1-HMG546-616, sequence (Q08945 546-616): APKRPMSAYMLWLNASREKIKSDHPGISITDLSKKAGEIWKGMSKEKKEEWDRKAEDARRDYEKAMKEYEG

hSSRP1-HMG520-616, sequence (Q08945 520-616): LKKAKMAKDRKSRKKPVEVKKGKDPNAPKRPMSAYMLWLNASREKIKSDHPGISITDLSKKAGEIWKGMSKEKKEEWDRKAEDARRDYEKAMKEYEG

Row | stoichiometry N [1] | Molecule | binding result [2] | binding result [3]
1 | 4 | hSSRP1-PH2 (Leu101-Thr195) (domain or fragment) | – | –
2 | – | 15 bp FAM GT-rich dsDNA (dsDNA) DNA 1: GGGGTGATTGTTCAG DNA 2: CTGAACAATCACCCC | binds | no binding
